The values below come from patent publication US20210388096A1 (Astellas, published 2021).

The target in assay [1] is T1, human Fn14 on cells (NFkB/HEK293 reporter cells, A375 cells) (human, UniProt Q9NP84 28-129).
T1 sequence (looked up): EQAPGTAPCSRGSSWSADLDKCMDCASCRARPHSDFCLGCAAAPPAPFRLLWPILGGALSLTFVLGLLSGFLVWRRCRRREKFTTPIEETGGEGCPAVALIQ
Nature of the assay: cell-based or functional assay.

Assay [2] deals with T2, human Fn14-human Fc fusion protein (human, UniProt Q9NP84 28-79).
T2 construct: range 1-79; Purified from CHO-K1SV culture supernatant; coated on the ELISA plate
T2 sequence: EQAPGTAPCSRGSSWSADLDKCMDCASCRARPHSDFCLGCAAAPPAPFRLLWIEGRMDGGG
The assay is described as follows: ELISA, Fn14-Fc fusion coated on plate, HRP anti-human kappa detection. Here is the method: (§1) Binding activities of 4-1h and 4-1m acquired in Example 4 to a Fn14 protein were evaluated. The human Fn14-human Fc fusion protein and the mouse Fn14-mouse Fc fusion protein acquired in Example 1 were diluted in phosphate buffered saline (PBS) at 1 μg/mL and added to a MaxiSorp 384-well transparent plate (Nunc, 464718) at 15 μL/well. Incubation was performed overnight at 4° C. for Immobilization. On the next day, the solid phase liquid was removed, and washing was performed with a 0.05% Tween-20-containing Tris-buffered saline (TBS-T). PBS containing 20% Blocking One (Nacalai tesque, Inc., 03953-95) was added thereto at […]. The resultant was left at room temperature for 1 hour, and then washed with TBS-T. A dilution series of 4-1h or 4-1m acquired in Example 4 was prepared by dilution in 12 steps with a 4-fold common ratio from a maximum concentration of 30 μg/mL using TBS-T containing 5% Blocking One (hereinafter, referred to as a diluent), and added at 20 μL/well. […] Then, the reaction was stopped by adding a 2M sulfuric acid, and the absorbance at 450 nm was measured with SpectraMax Paradigm (Molecular Devices, LLC). The test was performed in duplicate, and EC₅₀ values were calculated by 4-parameter logistic curve fitting.
(In general: In an ELISA, binding on a coated surface is turned into a signal by an enzyme label.)

Assay [3] has as its target T3, mouse Fn14-mouse Fc fusion protein (mouse, UniProt Q9CR75 28-75).
T3 construct: range 1-75; Fn14 part cloned via EcoRI/EcoRV into the multicloning site of pFUSE-mIgG2B-Fc1; not shown: mouse Fc region: mIgG2B-Fc region of vector pFUSE-mIgG2B-Fc1 (InvivoGen)
Described as above. Here is the method: as §1

Assay [4] concerns the target T2, human Fn14-human Fc fusion protein. Nature of the assay: ELISA, Fn14-Fc fusion coated on plate, HRP anti-mouse kappa detection. The procedure:
as §1

For assay [5], the target named is T3, mouse Fn14-mouse Fc fusion protein. The assay is described as above. Here is the method: as §1

T3 sequence (Q9CR75 28-75 limits assumed): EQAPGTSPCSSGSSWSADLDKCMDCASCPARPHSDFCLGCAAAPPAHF

B1: fully humanized anti-human Fn14 antibody 4-1h (antibody, human IgG1, kappa, L234A L235A, V domains shown)
VH: QVQLQQWGAGLLKPSETLSLTCAVYGGSFSGYYWSWIRQPPGKGLEWIGEINHRGSTNSNPSLKSRDTISVDTSKNQFSLRLRSVTAADTAVYYCAREGISGSMGIYDYSGMDVWGQGTTVTVSS
VL: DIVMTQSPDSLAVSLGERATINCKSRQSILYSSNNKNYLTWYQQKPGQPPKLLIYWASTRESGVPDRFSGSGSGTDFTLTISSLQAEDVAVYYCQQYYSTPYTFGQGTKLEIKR
modifications: most of the purified antibodies had pyroglutamylation at the N terminal of the heavy chain and deletion of lysine at the C terminal (Example 5)
notes: human kappa light chain; Expressed in CHO-K1SV cells; also called fully humanized antibody of 4-1
A word on the EC50: it is the concentration needed to bring the measured effect to its halfway point. Low readings indicate an effect from little substance, high ones a need for much substance. Take B1: in assay [1], the “IC50 (ng/mL), inhibition of Tweak-induced NFkB activation (luciferase reporter, NFkB/HEK293 cells), geometric mean of three trials” value was 41.5 ng/mL. The results for the 50% effective concentration (EC50) in assay [2] and in assay [3] were 0.0304 µg/mL and 0.0232 µg/mL, respectively.

B2: murinized anti-human Fn14 antibody 4-1m (antibody, mouse IgG2a, kappa, V domains shown)
VH: DVQLQESGPGLVKPSQSLSLTCAVYGGSFSGYYWSWIRQFPGNKLEWMGEINHRGSTNSNPSLKSRISITVDTSKNQFFLQLNSVTTEDTATYYCAREGISGSMGIYDYSGMDVWGQGTLVTVSA
VL: DIVMSQSPSSLAVSVGEKVTMSCKSRQSILYSSNNKNYLTWYQQKPGQSPKLLIYWASTRESGVPDRFTGSGSGTDFTLTISSVKAEDLAVYYCQQYYSTPYTFGSGTKLEIKR
notes: Framework regions of 4-1h partially substituted with mouse FR; mouse kappa light chain; also called murinized antibody of 4-1h
Consider B2, for which the EC50 stood at 0.0182 µg/mL in assay [4] and 0.0165 µg/mL in assay [5].
